Data as given in patent US20240343803A1 (SHANDONG SIMCERE BIOPHARMACEUTICAL, published 2024).
Numbering of substitutions follows the chain as printed.

T1: human PVRIG-his (AcroBiosystems, Cat NO. PVG-H52H4) (human, UniProt Q6DKI7 41-171, limits assumed)
T1 construct: also called human PVRIG protein
T1 sequence (looked up): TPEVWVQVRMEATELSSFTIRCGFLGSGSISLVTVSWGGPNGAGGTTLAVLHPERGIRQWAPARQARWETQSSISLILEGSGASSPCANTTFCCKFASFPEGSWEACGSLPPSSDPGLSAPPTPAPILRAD

T2: Fusion protein of extracellular domain of human TIGIT and mouse IgG2a Fc fragment (human TIGIT ECD-mFc) (human)
T2 construct: The entry includes the signal peptide (limits not recoverable) and the mouse IgG2a Fc
T2 chain: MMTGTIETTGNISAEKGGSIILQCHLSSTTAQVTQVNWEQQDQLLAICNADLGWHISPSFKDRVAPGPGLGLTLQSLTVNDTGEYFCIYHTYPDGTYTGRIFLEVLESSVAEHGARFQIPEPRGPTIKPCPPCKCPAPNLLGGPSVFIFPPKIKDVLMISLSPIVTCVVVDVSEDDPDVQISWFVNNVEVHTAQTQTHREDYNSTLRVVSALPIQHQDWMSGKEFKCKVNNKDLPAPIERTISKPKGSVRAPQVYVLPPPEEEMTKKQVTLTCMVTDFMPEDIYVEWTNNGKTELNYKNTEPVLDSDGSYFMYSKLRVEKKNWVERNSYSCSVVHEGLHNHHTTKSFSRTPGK

T3: Full-length human TIGIT on CHO-K1 cells (CHO-K1 human TIGIT) (human, UniProt Q495A1 22-244)
T3 construct: NCBI XP_024309156.1; the entry includes the signal peptide (limits not recoverable); The strain (high, medium, low) is named under assay; also called high expression strain 1D2; medium expression strain 2D10
T3 sequence: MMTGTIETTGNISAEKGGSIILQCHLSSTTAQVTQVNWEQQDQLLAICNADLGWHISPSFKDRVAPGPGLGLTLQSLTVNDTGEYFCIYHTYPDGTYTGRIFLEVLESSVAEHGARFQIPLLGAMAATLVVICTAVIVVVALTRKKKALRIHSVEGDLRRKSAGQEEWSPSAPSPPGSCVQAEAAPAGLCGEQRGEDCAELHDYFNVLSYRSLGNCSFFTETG

T4: human PVRIG-mFc protein (Acro, PVG-H5253) (human, UniProt Q6DKI7 41-171, limits assumed)
T4 construct: bought protein
T4 sequence (looked up): T1 sequence (looked up)

B1: PVRIG-A11 (Fc fusion)
chain: QLQLVESGGGLVQPGGSLRLSCAASGFTDDYYAIGWFRQAPGKEREGVSCISGSGGSTNYEDSVKGRFAISRDNAKNMVYLQMNDLKPEDTAVYYCAADPFWSAPCTGHNDRYFDVWGQGTLVTVSS
notes: heavy chain antibody VHH-hinge-CH2-CH3, human IgG1 constant part; not shown: human IgG1 hinge-CH2-CH3
B2: TIGIT-002-H2L1 (antibody, V domains shown)
VH: EVQLQESGPGLVKPSETLSLTCAVSGYSITSDSWNWIRQPPGKKLEWIGYISYSGNTYYNPSLKSRVTISRDTSKNQFSLKLSSVTAADTAVYYCARLDFSNYGGAVDYWGQGTTVTVSS
VL: DIVMTQTPLSLSVTPGQPASISCKASQNVRTAVAWYLQKPGQSPQLMIYSASYRYTGVPDRFSGSGSGTDFTLKISRVEAEDVGVYYCQQYYTTPWTFGGGTKVEIK
notes: Humanized anti-TIGIT antibody
B3: TIGIT-002-H1L1 (antibody, V domains shown)
VH: B2 VH with K44G
VL: B2 VL
notes: Humanized anti-TIGIT antibody
B4: TIGIT-002-H1L2 (antibody, V domains shown)
VH: B2 VH with K44G
VL: B2 VL with L37Q
notes: Humanized anti-TIGIT antibody
B5: TIGIT-002-H2L2 (antibody, V domains shown)
VH: B2 VH
VL: B2 VL with L37Q
notes: Humanized anti-TIGIT antibody
B6: TIGIT-002-H3L1 (antibody, V domains shown)
VH: B2 VH with I48M, V67I
VL: B2 VL
notes: Humanized anti-TIGIT antibody
B7: TIGIT-002-H3L2 (antibody, V domains shown)
VH: B2 VH with I48M, V67I
VL: B2 VL with L37Q
notes: Humanized anti-TIGIT antibody
B8: TIGIT-002-H4L1 (antibody, V domains shown)
VH: B2 VH with W47Y
VL: B2 VL
notes: Humanized anti-TIGIT antibody
B9: TIGIT-002-H4L2 (antibody, V domains shown)
VH: B2 VH with W47Y
VL: B2 VL with L37Q
notes: Humanized anti-TIGIT antibody

The binders below were run against T1, human PVRIG-his (AcroBiosystems, Cat …) (assay: SPR (BIAcore), antibody captured on Protein A chip, human PVRIG-His analyte).
Procedure: Biacore was used to detect the specific binding between anti-PVRIG antibody and human PVRIG protein. Protein A chip was used in the BIAcore assay. The time required for the chip to capture the diluted antibody and saturate the binding antigen to reach Rₘₐₓ (Maximum binding capacity, 50 RU) was measured by manual run. […] The affinity of antibody for antigen was measured by multi-cycle kinetics. In each cycle, the antibodies were injected prior to the injection of gradient concentraions of PVRIG proteins allowing the occurrence of antibody-antigen association and dissociation After each cycle, the Protein A chip was regenerated by Glycine, pH 1.5 (to remove the proteins on the chip). The affinity of antibody for antigen was calculated by BIAcore T200 analysis software.

Row | Binder | Kd | koff | kon
1 | B1 | 0.106 nM | 0.00338 s⁻¹ | 3.18e+07 M⁻¹ s⁻¹

What follows are binders tested against T5, Full-length cynomolgus monkey TIGIT on CHO-K1 cells (CHO-K1 cynomolgus monkey TIGIT) (cynomolgus monkey) (assay: cell binding, CHO-K1 cynomolgus monkey TIGIT).
T5 construct: NCBI XP_015300911.1
Procedure: (§1) The collected cells were washed once with PBS (Hyclone, CAT #SH30256), resuspended to 2×10⁵/50 μL with 1% BSA-PBS. The antibodies were diluted to 80 nM with 1% BSA-PBS (diluted by 3-fold serial dilution for 12 concentration points). The 50 μL cells were then mixed with 50 μL diluted antibodies, and then incubated at 4° C. for 60 minutes. […] After washing twice with PBS, the cell samples were resuspended with 1% BSA-PBS, 100 μL/well and then analyzed by flow cytometry (BD, Canto II). […] [0298] (c) The effect of anti-TIGIT chimeric antibodies blocking the interaction between Bio-CD155-His and CHO-K1 human TIGIT high expression cell strains detected by FACS
(§2) The affinity of the above humanized antibodies with human TIGIT ECD-His is detected by BIAcore, and with reference to the methods of Example 4 (a), (b), and (d), the binding activity of the above humanized antibodies to human TIGIT ECD-mFc, CHO-K1 human TIGIT, CHO-K1 cynomolgus monkey TIGIT and cynomolgus monkey TIGIT ECD-mFc, and the effect of the humanized antibodies blocking the binding between human TIGIT ECD-mFc and CHO-K1 CD155 are detected, the results are shown in Table 18.

T5 sequence (chain, as listed by the source limits assumed): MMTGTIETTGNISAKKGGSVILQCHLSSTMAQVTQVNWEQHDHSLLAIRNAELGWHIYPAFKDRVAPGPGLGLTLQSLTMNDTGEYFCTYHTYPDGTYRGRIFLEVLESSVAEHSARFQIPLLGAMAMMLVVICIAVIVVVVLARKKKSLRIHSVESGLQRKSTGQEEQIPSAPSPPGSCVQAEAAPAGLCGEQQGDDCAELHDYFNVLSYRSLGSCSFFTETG

Row | Binder | EC50
2 | B2 | 0.181 nM
3 | B3 | 0.187 nM
4 | B4 | 0.221 nM
5 | B5 | 0.12 nM
6 | B6 | 0.232 nM
7 | B7 | 0.113 nM
8 | B8 | 0.0543 nM
9 | B9 | 0.0474 nM

The binders below were run against T6, Fusion protein of extracellular domain of human TIGIT and human IgG1 Fc fragment (human TIGIT ECD-hFc) (human) (assay: blocking of TIGIT ECD-hFc binding to CHO-K1 CD155 cells).
T6 construct: The entry includes the signal peptide (limits not recoverable) and the human IgG1 Fc
Outline: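 Cell-based ELISA on CHO-K1 CD155 cells, cultured overnight, fixed and blocked with 5% skim milk-PBS. Antibodies were premixed for 0.5 h with human TIGIT ECD-hFc (working concentration 30 ng/mL), then added and held at 37° C for 1.5-2 h. Bound TIGIT was detected with HRP secondary antibody (1:5000, 37° C, 1 h) and TMB, read as OD450 nm. IC50 came from the inhibition curves.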

T6 sequence (chain, as listed by the source limits assumed): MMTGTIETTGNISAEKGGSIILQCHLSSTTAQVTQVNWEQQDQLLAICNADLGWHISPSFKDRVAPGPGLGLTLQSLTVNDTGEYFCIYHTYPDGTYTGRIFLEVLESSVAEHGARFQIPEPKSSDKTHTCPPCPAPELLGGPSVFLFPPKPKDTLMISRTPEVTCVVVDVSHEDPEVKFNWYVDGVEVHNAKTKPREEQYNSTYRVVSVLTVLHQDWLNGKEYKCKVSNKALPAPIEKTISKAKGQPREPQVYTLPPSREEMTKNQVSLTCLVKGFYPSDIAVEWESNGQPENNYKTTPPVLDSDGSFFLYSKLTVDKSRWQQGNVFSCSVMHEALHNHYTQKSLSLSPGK

Row | Binder | IC50
10 | B2 | 0.646 nM
11 | B3 | 0.526 nM
12 | B4 | 0.421 nM
13 | B5 | 0.56 nM
14 | B6 | 0.459 nM
15 | B7 | 0.394 nM
16 | B8 | 0.445 nM
17 | B9 | 0.44 nM

Target: T2, Fusion protein of extracellular domain …
Experiment: ELISA, human TIGIT ECD-mFc
Procedure: (§3) After discarding the coating solution, the plate was added with 5% skim milk powder (Sangon Biotech, CAT #A600669-0250)-PBS, 250 μL/well, and incubated at 37° C. for 2-4 hours. […] The enzyme-labeled plate was then washed with 0.05% Tween 20-PBS for 3 times on the Microplate Washer, added with tested antibodies diluted to 13 nM with 1% BSA (diluted by 3-fold serial dilution for 12 concentration points), 50 μL/well, and incubated at 37° C. for 1.5-2 hours. The plate was washed with 0.05% Tween 20-PBS for 3 times on the Microplate Washer, then added with HRP enzyme-labeled antibodies (Merck, CAT #AP113P) diluted with 1% BSA (Sangon Biotech, CAT #A500023-0100)-PBS at a dilution ratio of 1:5000, 50 μL/well, and incubated at 37° C. for 1 hour. After washing 3 times with 0.05% Tween 20-PBS on the Microplate Washer, the plate was added with TMB chromogenic solution (KPL, CAT #52-00-03), 50 μL/well, and incubated at room temperature for 7-10 minutes. 1M HCL, 50 μL/well, was then added into the plate to terminate the reaction, and the OD450 nm was read by a microplate reader (Biotek, Powerwave HT). […] (b) The binding activity of anti-TIGIT chimeric antibodies to CHO-K1 human TIGIT (cells with high, medium and low expression levels) and CHO-KI cynomolgus monkey TIGIT detected by FACS.
as §2

Row | Binder | EC50
18 | B2 | 0.0188 nM
19 | B3 | 0.0155 nM
20 | B4 | 0.0158 nM
21 | B5 | 0.0222 nM
22 | B6 | 0.012 nM
23 | B7 | 0.017 nM
24 | B8 | 0.0164 nM
25 | B9 | 0.0179 nM

These binders were tested against T3, Full-length human TIGIT on CHO-K1 cells … (assay: cell binding, CHO-K1 human TIGIT high expression strain).
Procedure: as §1, §2

Row | Binder | EC50
26 | B2 | 0.0468 nM
27 | B3 | 0.0201 nM
28 | B4 | 0.0167 nM
29 | B5 | 0.0215 nM
30 | B6 | 0.0204 nM
31 | B7 | 0.0329 nM
32 | B8 | 0.0253 nM
33 | B9 | 0.0294 nM

What follows are binders tested against T7, Fusion protein of extracellular domain of cynomolgus monkey TIGIT and mouse IgG2a Fc fragment (cynomolgus … (cynomolgus monkey)) (assay: ELISA, cynomolgus monkey TIGIT ECD-mFc).
T7 construct: The entry includes the signal peptide (limits not recoverable) and the mouse IgG2a Fc
Procedure: as §3, §2

T7 sequence (chain, as listed by the source limits assumed): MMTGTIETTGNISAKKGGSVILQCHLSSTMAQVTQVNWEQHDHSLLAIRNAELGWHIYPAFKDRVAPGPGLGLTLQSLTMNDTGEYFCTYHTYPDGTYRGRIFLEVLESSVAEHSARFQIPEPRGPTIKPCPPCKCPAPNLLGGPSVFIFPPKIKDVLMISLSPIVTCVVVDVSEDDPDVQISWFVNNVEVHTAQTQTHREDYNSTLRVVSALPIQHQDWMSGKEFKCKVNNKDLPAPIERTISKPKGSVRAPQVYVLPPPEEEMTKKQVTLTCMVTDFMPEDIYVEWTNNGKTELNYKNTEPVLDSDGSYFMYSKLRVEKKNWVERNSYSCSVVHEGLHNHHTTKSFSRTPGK

Row | Binder | EC50
34 | B2 | 0.0877 nM
35 | B3 | 0.209 nM
36 | B4 | 0.0811 nM
37 | B5 | 0.0554 nM
38 | B6 | 0.0253 nM
39 | B7 | 0.0218 nM
40 | B8 | 0.0206 nM
41 | B9 | 0.0254 nM

Each binder was assayed against T4, human PVRIG-mFc protein (Acro, …) (assay: FACS competition, PVRIG-mFc binding to CHO-K1-CD112 cells, competitor CD112 on cells).
Procedure: A working solution of human PVRIG-mFc protein (Acro, PVG-H5253) prepared with staining buffer, 1 μg/mL (four-fold concentration), was added into a 96-well plate (50 μL PVRIG-mFc working solution per well). […] The diluted antibodies were added to the well containing 50 μL of PVRIG-mFc. The plate was placed on a microplate shaker at 400 rpm for 1 minute to fully mix the antibodies and PVRIG-mFc proteins, and then incubated at 4° C. for 30 minutes. After the incubation, the cell suspension prepared above (100 μL) was added into the wells, gently mixed with the pipette tip and incubated at 4° C. for 30 minutes. After the incubation, the cells were washed twice with staining buffer (200 μL per well) and centrifuged at 350×g for 5 minutes to discard the supernatant. The PE goat anti-mouse IgG Fc antibody (Biolegend, 405337) was diluted 250 times with staining buffer, added into the washed wells (100 μL per well), mixed well, and stained at 4° C. for 30 minutes. After staining, the cells were washed twice with staining buffer, finally resuspended with 200 μL staining buffer and analyzed by flow cytometry (BD, Canto II). The weaker the fluorescence signal, the stronger the ability of the antibodies blocks the binding of CHO-K1 human CD112 cells to the PVRIG-mFc protein. An antibody binding curve was drawn with concentration of antibodies as the abscissa and the corresponding Mean Fluorescence Intensity (MFI) as the ordinate. The IC50 value of the antibodies and the AUC value of the binding curve were calculated by using a Four Parameter Logistic Fit (GraphPadPrism9). The smaller the IC50 value and AUC value, the stronger the ability of the antibodies competes with CHO-K1-CD112 cells to bind to human PVRIG-mFc protein. […] […] The smaller the percentage value, the stronger the blocking ability of the antibodies.

Row | Binder | % AUC to COM701-hIgG4 | % AUC to SRF813-hIgG1 | % IC50 to COM701-hIgG4 | % IC50 to SRF813-hIgG1
42 | B1 | 78% | 58.9% | 62.8% | 64.1%
